Source: patent US11111295

Target: human claudin 18A2 (CLD18A2) (human)
Assay: cell-based or functional assay

Chain of human claudin 18A2 (CLD18A2) (human) (chain, as listed by the source limits assumed, form in doubt): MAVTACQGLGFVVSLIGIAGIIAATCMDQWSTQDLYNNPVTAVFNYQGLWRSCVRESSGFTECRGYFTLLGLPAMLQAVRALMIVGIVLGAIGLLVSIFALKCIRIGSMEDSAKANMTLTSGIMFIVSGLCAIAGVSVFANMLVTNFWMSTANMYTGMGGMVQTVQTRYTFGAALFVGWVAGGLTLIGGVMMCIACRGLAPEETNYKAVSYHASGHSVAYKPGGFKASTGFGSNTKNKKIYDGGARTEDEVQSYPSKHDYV

Substance: hu8E5-28Z chimeric antigen receptor
- CAR-T cytotoxicity on AGS-A2 cells, effector-to-target ratio 3:1: > 60%
- CAR-T cytotoxicity on BGC-823-A2 cells, effector-to-target ratio 3:1: > 90%
